Laboratory results: publication PMC11655906
Values joined by “and” are separate entries in the source; they are usually repeats but may differ in a detail not shown here. Identical values can stand only once.

Target: mouse Flower isoform 4 with C-terminal mTFP (mFwe4-mTFP) (mouse)
Assay: native gel or EMSA; native PAGE (4-16% Bis-Tris, G-250 additive) of lysates of transfected Fwe KO mouse CTLs (modified RIPA: 50 mM Tris pH 7.5, 50 mM NaCl, 1% Triton-X-100, 1 mM EDTA), western blot with anti-DsRed recognising mTFP; oligomeric state read from band size

Sequence of mouse Flower isoform 4 with C-terminal mTFP (mFwe4-mTFP) (natural protein) (Q8BG21 whole entry, canonical isoform): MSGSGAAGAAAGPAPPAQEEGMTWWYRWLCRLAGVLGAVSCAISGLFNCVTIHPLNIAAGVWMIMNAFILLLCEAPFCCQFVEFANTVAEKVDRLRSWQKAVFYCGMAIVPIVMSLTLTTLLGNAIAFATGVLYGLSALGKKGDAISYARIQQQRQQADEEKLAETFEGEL

stoichiometry N: 4 and 6
Substance: mouse Flower isoform 4 with C-terminal mTFP (mFwe4-mTFP) (natural protein)
